From patent US20100221257A1

Experiments:
[1] = target: human IL-1R1, endogenous on human cells (HeLa cells; whole blood) (human) (UniProt P14778); experiment: cell-based or functional assay
[2] = target: Human sIL-1R1 (R&D Systems), un-tagged (human) (UniProt P14778); experiment: KinExA, IgG equilibrated in solution with un-tagged sIL-1R1; free IgG captured on IL-1R1 beads
Human sIL-1R1 (R&D Systems), un-tagged (human), sequence (P14778 18-332 limits assumed): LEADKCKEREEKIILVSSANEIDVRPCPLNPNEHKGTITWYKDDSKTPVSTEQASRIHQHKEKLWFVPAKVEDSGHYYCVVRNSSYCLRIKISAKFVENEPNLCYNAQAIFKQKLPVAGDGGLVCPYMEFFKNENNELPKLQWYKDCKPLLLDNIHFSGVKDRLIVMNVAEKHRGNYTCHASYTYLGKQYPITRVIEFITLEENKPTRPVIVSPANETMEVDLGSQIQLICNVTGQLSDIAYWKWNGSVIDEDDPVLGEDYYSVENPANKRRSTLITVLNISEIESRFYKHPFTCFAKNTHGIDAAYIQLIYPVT

human IL-1R1, endogenous on human cells (HeLa cells; whole blood) (human), sequence (P14778 18-569): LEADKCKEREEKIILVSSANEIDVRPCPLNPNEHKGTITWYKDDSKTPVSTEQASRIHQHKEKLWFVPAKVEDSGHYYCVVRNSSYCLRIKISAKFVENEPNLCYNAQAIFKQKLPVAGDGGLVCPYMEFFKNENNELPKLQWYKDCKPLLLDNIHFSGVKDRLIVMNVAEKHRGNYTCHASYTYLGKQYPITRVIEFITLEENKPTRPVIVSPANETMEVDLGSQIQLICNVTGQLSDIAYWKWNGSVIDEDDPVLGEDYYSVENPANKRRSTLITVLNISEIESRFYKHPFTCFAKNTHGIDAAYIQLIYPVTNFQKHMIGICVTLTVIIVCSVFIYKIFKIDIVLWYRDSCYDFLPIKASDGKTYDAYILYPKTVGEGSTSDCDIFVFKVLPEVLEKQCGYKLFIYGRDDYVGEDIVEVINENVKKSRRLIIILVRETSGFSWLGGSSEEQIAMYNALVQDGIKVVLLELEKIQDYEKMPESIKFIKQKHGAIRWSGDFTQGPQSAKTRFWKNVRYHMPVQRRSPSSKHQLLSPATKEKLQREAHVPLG

- IC50, inhibition of IL-1 alpha induced IL-8 release in HeLa cells (N = 3) [1]: 11.7 pM
- IC50, inhibition of IL-1 beta induced IL-8 release in HeLa cells (run with the GL IgG2 set, N = 5-6) [1]: 5.9 pM
- IC50, inhibition of IL-1 beta induced IL-8 release in HeLa cells (run with the IgG1 set, N = 6-7) [1]: 5.3 pM
- IC50, inhibition of human IL-1β induced IL-8 release from HeLa cells [1]: 9 pM
- Kd [2]: 4.12 pM
Substance: AMG108 IgG2 (antibody)
